Data from patent US20220268787A1 (JW BIOSCIENCE, published 2022).

Columns and labels:
Test in all cases: indirect ELISA, antigen coated at 1 µg/ml
[1] = molecular target: T1, CRS (cysteinyl-tRNA synthetase) (UniProt P49589 1-748, limits assumed)
T1 sequence (looked up): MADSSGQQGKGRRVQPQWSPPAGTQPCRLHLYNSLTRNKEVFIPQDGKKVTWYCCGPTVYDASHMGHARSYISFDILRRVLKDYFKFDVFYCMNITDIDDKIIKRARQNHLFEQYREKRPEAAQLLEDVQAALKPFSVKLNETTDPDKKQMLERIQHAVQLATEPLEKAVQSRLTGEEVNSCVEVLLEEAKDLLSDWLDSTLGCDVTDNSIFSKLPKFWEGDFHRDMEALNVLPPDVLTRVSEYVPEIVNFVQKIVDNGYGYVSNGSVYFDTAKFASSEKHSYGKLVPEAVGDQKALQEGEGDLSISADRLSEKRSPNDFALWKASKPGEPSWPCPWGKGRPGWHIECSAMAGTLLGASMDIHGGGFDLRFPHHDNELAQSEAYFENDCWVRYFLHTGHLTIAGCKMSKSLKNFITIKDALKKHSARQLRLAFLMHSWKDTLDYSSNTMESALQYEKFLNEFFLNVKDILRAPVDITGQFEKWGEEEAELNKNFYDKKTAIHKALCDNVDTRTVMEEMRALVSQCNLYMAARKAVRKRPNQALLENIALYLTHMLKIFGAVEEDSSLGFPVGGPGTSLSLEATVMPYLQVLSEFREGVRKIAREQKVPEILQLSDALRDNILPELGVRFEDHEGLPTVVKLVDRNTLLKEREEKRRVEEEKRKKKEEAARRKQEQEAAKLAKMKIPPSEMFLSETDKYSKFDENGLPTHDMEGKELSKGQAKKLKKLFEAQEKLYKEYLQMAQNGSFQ

[2] = molecular target: T2, AIMP1 (aminoacyl tRNA synthase complex-interacting multifunctional protein 1) (UniProt Q12904 1-312, limits assumed)
T2 construct: also called p43
T2 sequence (looked up): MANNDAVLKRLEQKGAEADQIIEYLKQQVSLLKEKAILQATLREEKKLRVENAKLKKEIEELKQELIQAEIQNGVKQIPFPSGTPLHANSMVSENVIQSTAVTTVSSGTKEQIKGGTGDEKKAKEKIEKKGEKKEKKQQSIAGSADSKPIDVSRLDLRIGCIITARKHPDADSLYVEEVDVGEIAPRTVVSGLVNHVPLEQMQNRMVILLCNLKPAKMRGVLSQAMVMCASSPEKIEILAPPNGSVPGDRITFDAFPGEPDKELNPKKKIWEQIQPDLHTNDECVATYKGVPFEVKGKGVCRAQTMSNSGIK

[3] = molecular target: T3, GRS (glycyl tRNA synthetase) (UniProt P41250 55-739, limits assumed)
T3 sequence (looked up): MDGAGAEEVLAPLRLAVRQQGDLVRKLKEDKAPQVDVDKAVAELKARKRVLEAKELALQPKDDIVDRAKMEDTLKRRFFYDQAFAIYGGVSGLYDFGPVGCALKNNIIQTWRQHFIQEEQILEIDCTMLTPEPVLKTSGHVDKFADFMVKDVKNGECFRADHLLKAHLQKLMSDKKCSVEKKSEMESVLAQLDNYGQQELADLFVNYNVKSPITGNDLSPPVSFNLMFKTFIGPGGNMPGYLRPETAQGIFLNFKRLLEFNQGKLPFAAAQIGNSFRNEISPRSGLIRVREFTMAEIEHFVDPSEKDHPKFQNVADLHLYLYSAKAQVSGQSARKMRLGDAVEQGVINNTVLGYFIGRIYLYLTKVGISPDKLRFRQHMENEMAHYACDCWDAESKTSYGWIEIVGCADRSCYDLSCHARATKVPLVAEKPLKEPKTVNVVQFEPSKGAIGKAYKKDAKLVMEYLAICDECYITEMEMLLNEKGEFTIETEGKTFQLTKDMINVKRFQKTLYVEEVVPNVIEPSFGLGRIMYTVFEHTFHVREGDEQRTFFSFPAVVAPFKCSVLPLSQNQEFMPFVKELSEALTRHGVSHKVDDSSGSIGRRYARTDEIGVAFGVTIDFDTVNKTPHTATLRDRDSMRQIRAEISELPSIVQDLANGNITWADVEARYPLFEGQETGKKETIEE

[4] = molecular target: KRS (lysyl tRNA synthetase) (UniProt Q15046 1-597, limits assumed)
KRS (lysyl tRNA synthetase), sequence (Q15046 whole entry): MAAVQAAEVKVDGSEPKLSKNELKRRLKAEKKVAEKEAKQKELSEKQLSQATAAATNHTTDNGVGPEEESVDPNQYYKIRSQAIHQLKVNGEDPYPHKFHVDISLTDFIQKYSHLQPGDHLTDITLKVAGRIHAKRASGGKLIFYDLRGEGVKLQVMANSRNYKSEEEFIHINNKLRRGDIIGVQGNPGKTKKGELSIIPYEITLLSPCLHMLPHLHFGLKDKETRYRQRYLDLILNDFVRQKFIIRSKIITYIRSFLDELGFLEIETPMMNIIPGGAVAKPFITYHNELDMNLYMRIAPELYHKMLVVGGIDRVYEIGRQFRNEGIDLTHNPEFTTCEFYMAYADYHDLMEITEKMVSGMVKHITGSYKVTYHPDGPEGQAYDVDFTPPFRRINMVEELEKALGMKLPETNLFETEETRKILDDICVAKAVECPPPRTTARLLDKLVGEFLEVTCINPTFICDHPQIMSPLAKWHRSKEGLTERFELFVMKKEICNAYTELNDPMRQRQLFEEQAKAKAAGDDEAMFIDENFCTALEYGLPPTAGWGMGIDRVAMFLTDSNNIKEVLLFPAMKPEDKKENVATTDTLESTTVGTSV

binding result [1]: no binding (tested: 500 ng/ml)
binding result [2]: no binding (tested: 500 ng/ml)
binding result [3]: no binding (tested: 500 ng/ml)
binding result [4]: no binding (tested: 500 ng/ml)
B1: 4D10G6 monoclonal antibody (antibody, V domains shown)
VH: EFQLQQSGPELVKPGASVKISCKASGYAFIDYNMNWVKQSNGKSLEWIGVINPNYGTIRYNQKFKGKATLTVDQSSSTAYMQLNSLTSEDSAVYYCAGLLRGYYAMDYWGQGTSVTVSS
VL: QAVVTQESALTTSPGETVTLTCRSSTGAVTTSNYANWVQEKPDHLFTGLIGGTNNRAPGVPARFSGSLIGDKAALTITGAQTEDEAIYFCVLWYSNHWVFGGGTKLTVL
notes: Mouse hybridoma monoclonal (Balb/c), purified from ascites on Protein A or G beads; also called the antibody according to the present invention
